Target: T1, CXCR4-CFP / CXCR4-YFP (human), P61073
T1 chain: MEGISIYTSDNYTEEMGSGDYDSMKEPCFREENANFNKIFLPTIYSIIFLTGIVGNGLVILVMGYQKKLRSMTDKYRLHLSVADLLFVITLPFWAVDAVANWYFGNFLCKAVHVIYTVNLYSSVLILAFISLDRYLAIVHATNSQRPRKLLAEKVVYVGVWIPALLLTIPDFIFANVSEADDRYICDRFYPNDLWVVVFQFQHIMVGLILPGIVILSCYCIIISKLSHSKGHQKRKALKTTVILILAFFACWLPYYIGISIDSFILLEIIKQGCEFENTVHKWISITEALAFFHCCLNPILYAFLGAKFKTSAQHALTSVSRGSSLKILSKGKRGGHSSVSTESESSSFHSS
Assay: FRET or BRET; FLIM (CFP donor lifetime) in live HEK-293T cells transfected with CXCR4-YFP/CXCR4-CFP or 5HTR2B-YFP/CXCR4-CFP (15 µg : 9 µg); CXCR4-CFP alone as reference; untreated or ChOx (25 U/mL, 2 h, 37 °C); without or with CXCL12 (100 nM, 30 min)
Conditions: remark: other sources report otherwise

B1: CXCR4-CFP / CXCR4-YFP, P61073 1-352 (receptor)
chain: T1 chain
A CFP donor lifetime (CFPτ), ChOx-treated cells (2.03 ns for CXCR4-CFP alone) of 1.82 ns, a CFP donor lifetime (CFPτ), ChOx-treated cells with CXCL12 of 1.75 ns and a CFP donor lifetime (CFPτ), untreated cells (2.03 ns for CXCR4-CFP alone) of 1.7 ns were found for B1 in this work. It also gave a CFP donor lifetime (CFPτ), untreated cells with CXCL12 of 1.61 ns.
